Our source for the percent reduction of RalB binding to Exo84, percent reduction of RalB binding to Sec5 and fold binding over the GFP control values is doi:10.1101/2025.06.13.659557.

Like-named read-outs stand apart in the source and are kept apart here.

One assay deals with mCherry-RalB (UniProt P11234). The assay can be described thus: co-IP.
The target of assay [1] is GFP-RalB (UniProt P11234). In words: pull-down.
The target of assay [2] is GFP-RalA (UniProt P11233). The assay can be described thus: pull-down.
Sequence of UniProt P11233 (P11233 whole entry, the tested form may be a part): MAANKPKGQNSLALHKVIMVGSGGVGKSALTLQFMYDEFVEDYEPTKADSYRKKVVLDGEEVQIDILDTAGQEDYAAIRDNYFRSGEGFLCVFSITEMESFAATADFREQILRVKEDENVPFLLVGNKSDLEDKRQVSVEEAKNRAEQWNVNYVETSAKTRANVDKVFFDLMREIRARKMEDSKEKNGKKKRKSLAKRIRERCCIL
The target of assay [3] is GFP-RalB (UniProt P11234). In words: pull-down. The source holds these as a separate data set.
Assay [4] addresses GFP-RalA (UniProt P11233). In words: pull-down. The source holds these as a separate data set.
The target in assay [5] is angiomotin (GFP-fused bait) (UniProt Q4VCS5). The assay can be described thus: pull-down.
Sequence of UniProt Q4VCS5 (Q4VCS5 whole entry, the tested form may be a part): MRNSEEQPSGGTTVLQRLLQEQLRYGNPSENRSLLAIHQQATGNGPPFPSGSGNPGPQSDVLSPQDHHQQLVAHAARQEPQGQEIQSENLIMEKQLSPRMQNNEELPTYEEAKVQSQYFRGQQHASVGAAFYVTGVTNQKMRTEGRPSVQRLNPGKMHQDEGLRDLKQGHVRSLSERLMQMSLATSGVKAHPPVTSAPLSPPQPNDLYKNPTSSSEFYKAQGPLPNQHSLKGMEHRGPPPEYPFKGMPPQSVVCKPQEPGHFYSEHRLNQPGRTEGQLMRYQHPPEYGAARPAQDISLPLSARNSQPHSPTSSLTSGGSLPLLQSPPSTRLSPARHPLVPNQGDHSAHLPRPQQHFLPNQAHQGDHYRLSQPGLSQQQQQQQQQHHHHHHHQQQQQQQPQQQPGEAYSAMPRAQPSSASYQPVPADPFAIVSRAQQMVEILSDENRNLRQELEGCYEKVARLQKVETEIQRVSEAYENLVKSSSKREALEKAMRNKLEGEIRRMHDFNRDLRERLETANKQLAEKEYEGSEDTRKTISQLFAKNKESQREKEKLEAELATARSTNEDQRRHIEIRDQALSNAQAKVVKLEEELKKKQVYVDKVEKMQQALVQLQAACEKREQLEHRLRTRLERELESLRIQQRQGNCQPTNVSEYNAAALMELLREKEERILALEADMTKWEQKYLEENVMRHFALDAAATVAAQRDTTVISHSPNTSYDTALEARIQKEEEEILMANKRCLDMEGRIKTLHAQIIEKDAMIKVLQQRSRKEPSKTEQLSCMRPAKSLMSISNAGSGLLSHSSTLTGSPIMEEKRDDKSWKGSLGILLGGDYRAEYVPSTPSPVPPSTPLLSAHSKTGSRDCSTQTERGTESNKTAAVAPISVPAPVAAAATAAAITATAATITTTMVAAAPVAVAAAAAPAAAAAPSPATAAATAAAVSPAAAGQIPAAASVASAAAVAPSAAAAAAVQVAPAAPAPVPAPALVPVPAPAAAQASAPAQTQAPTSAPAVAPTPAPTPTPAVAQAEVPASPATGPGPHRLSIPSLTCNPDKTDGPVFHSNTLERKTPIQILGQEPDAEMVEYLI

For “Merlin-GFP (wild type) (from UniProt P35240 1-595) (natural protein)”, in the assay with mCherry-RalB, the percent reduction of RalB binding to Exo84 worked out at 50% and the percent reduction of RalB binding to Sec5 stood at 50%.
Turning to “Merlin-NanoLuc (from UniProt P35240 1-595) (natural protein)”, the fold binding over the GFP control with GFP-RalB [1] is more than 50 fold; in the assay with GFP-RalA [2], more than 50 fold; with GFP-RalB [3], 7 fold; with GFP-RalA [4], 7 fold; in assay [5], more than 65 fold.
